Assay results: the nanobody polyreactivity screen of Harvey et al. (2022)

Experiment: yeast display, Sf9 membrane polyspecificity reagent, FACS + sequencing; frameworks hold sequencing errors
In short: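 After 36–48 hours of galactose induction, yeast (Saccharomyces cerevisiae BJ5465) displaying a synthetic nanobody library were stained at 4 °C for 1 hour with 10% biotinylated, detergent-solubilized Sf9 membrane reagent. Streptavidin microbeads enriched the stained cells before FACS sorting into low and high (top ~1%) gates on anti-HA and streptavidin fluorescence. Each clone's polyreactivity label reflects its gate of origin.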

Sequence: QVQLVESGGGLVQAGGSLRLSCAASGFTFGTYDMGWYRQAPGKERELVAAISTSGGSTYYADSVKGRFTISRDNAKNTVYLQMNSLKPEDTAVYYCAARIVYYGGYGYWGQGTQVTVSS
- polyreactivity (PSR sort gate): high polyreactivity

Sequence: QVQLVESGGGLVQAGGSLRLSCAASGFTFGVNAMGWYRQAPGKERELVAVITSGGNTYYADSVKGRFTISRDNAKNTVYLQMNSLKPEDTAVYYCAADLSDTSYATRYQGDYWGQGTQVTVSS
- polyreactivity (PSR sort gate): low polyreactivity

Sequence: QVQLVESGGGLVQAGGSLRLSCAASGFTFGVYAMGWYRQAPGKERELVAAISVSGGRTYYADSVKGRFTISRDNAKNTVYLQMNSLKPEDTAVYYCAADLGLKTSSRRTSMYYWGQGTQVTVSS
- polyreactivity (PSR sort gate): high polyreactivity

Sequence: QVQLVESGGGLVQAGGSLRLSCAASGFTFGVYAMGWYRQAPGKERELVAAITRSGSSTYYADSVKGRFTISRDNAKNTVYLQMNSLKPEDTAVYYCNKYKYVSAVQWKVAGDYWGQGTQVTVSS
- polyreactivity (PSR sort gate): low polyreactivity

Sequence: QVQLVESGGGLVQAGGSLRLSCAASGFTFGWYAMGWYRPAPGKERELVAAISSTGGRTYYADSVKGRFTISRDNAKNTVYLQMNSLKPEDTAVYYCAAAYSYGTEYGYWGQGTQVTVSS
- polyreactivity (PSR sort gate): high polyreactivity

Sequence: QVQLVESGGGLVQAGGSLRLSCAASGFTFGYNAMGWYRHAPGKERELVAAISYRDGSTYYADSVKGRFTISRDNAKNTVYLQMNSLKPEDTAVYYCAAEVWYPGWGYDYWGQGTQVTVSS
- polyreactivity (PSR sort gate): high polyreactivity

Sequence: QVQLVESGGGLVQAGGSLRLSCAASGFTFGYNAMGWYRQAPGKEREFVAAISISTGRTFYADSVKGRFTISRDNAKNTVYLQMNSLKPEDTAFYYCAARGYYPTNVGKYNYWGQGTQVTVSS
- polyreactivity (PSR sort gate): high polyreactivity

Sequence: QVQLVESGGGLVQAGGSLRLSCAASGFTFGYNAMGWYRQAPGKEREMVAAINYGGSTDYADSVKGRFTISRDYAKNTVYLQMNSLKPEDTAVYYCNIADRYAYWVRGRHRYGYWGQGTQVTVSS
- polyreactivity (PSR sort gate): low polyreactivity

Sequence: QVQLVESGGGLVQAGGSLRLSCAASGFTFGYNAMGWYRQTPGKERELVAVITQSGGRTYYADSVKGRFTISRDNAKNTVYLQMNSLKPEDTAVYYCAARYRLPPYYYWGQGTQVTVSS
- polyreactivity (PSR sort gate): high polyreactivity

Sequence: QVQLVESGGGLVQAGGSLRLSCAASGFTFGYYAMGRYRQAPGKERELVATITSSGASTYADSVKGRFTISRDNAKNTVYLLMNSLKPEDTAVYYCAADRLPSYWSWYGYDYWGQGTQVTVSS
- polyreactivity (PSR sort gate): high polyreactivity

Sequence: QVQLVESGGGLVQAGGSLRLSCAASGFTFGYYAMGWYRQAPGKERELVAAINWSGDSTYYADSVKGRFTISRDNAKNTVYLQMNSLKPEDTAVYYCNAVIEDLPYDYWGQGTQVTVSS
- polyreactivity (PSR sort gate): low polyreactivity

Sequence: QVQLVESGGGLVQAGGSLRLSCAASGFTFGYYAMGWYRQAPGKERELVAAITWNGGSTYYADSVKGRFTISRDYAKNTVYLQMNSLKPEDTAVYYCAAVYKYIQRYDYWGQGTQVTVSS
- polyreactivity (PSR sort gate): high polyreactivity

Sequence: QVQLVESGGGLVQAGGSLRLSCAASGFTFGYYAMGWYRQAPGKERELVARISRRGGTTYYADSVKGRFTISRDNAKTTVYLQMNSLKPEDTAVYYCATDGVWNRINRYDYWGQGTQVTVSS
- polyreactivity (PSR sort gate): high polyreactivity

Sequence: QVQLVESGGGLVQAGGSLRLSCAASGFTFGYYAMGWYRQAPGKERELVDAISSSGGSTYYSDSVKGSFTISRDNAKNTVYLQMNSLKPEDTAVYYCNRGTTVRGPGYTNGRDITRYDYWGQGTQVTVSS
- polyreactivity (PSR sort gate): high polyreactivity

Sequence: QVQLVESGGGLVQAGGSLRLSCAASGFTFGYYTMGWYRPEAGKEWELVAAISNSGGRTYYADSVKGRFTISLDYAKNTVYFQMNSLKPEDTAVYYCAKAYRTPGYDSWGQGTQVTVSS
- polyreactivity (PSR sort gate): high polyreactivity

Sequence: QVQLVESGGGLVQAGGSLRLSCAASGFTFGYYTMGWYRQAPGKERELVAAISWSGDSTYYADSVKGRFTISRDNAKNNVYLQMNSLKPEDTAVYYCAAAVYGSWPDYDYWGQGTQVTVSS
- polyreactivity (PSR sort gate): low polyreactivity

Sequence: QVQLVESGGGLVQAGGSLRLSCAASGFTFHNNVMGWYRQAPGKERELVATISKSGGSTYYADSVKGRFTISRDNAKNTVYLQMNSLKPEDTAVYYCAAETPTHDEWGQGTQVTVSS
- polyreactivity (PSR sort gate): high polyreactivity

Sequence: QVQLVESGGGLVQAGGSLRLSCAASGFTFHNYAMGWYRQAPGKEREFVAAITRNTASTYYADSVKGRFTISRDNAKTTVYLQMISLKPEATAVYYCAATDKKHRTAYDSWGQRTQVTVSS
- polyreactivity (PSR sort gate): low polyreactivity

Sequence: QVQLVESGGGLVQAGGSLRLSCAASGFTFHNYAMGWYRQAPGKERELVAAISASGSSTYYADSVKGRFTISRDNAKNTVYLQMNSLKPEDTAVYYCAAVGRYSPYGYWGQGTQVTVSS
- polyreactivity (PSR sort gate): high polyreactivity

Sequence: QVQLVESGGGLVQAGGSLRLSCAASGFTFHQYTMGWYRQAPGKERELVAAISRSGYTNYADSVKGRFTISRDNAKNTVYLQMNSLKPEDTAVYYCNARSTRSRTYQSYDYWGQGTQVTVSS
- polyreactivity (PSR sort gate): high polyreactivity

Sequence: QVQLVESGGGLVQAGGSLRLSCAASGFTFHRNAMGWYRQAPGKERELVAAISTRGGSTAYADSVKGRFTISRDNAKNTVYLQMNSLKPEDTAVYYCAAATSPGIYDYWGQGTQVTVSS
- polyreactivity (PSR sort gate): high polyreactivity

Sequence: QVQLVESGGGLVQAGGSLRLSCAASGFTFHYNAMGWYRQAPGKERELVAAISRSGGITNYADSVKGRFTISRDNAKNTVYLQMNSLKPEDTAVYYCAAYLVVRIRYTQRYDYWGQGTQVTVSS
- polyreactivity (PSR sort gate): low polyreactivity

Sequence: QVQLVESGGGLVQAGGSLRLSCAASGFTFHYYTMGWYRQAPGKERELVASINYSGGRTYYADSVKGRFTISRDNAKNTVYLQMNSLKPEDTAVYYCNARYKSTYYYWGQGTQVTVSS
- polyreactivity (PSR sort gate): high polyreactivity

Sequence: QVQLVESGGGLVQAGGSLRLSCAASGFTFIFNAMGWNRQAPGKERELVATISSGGSTYYADSVKGRFTISRDNAKNTVYLQMNSLKPEDTAVYYCNTDDVGGYDYWGQGTQVTLSS
- polyreactivity (PSR sort gate): low polyreactivity

Sequence: QVQLVESGGGLVQAGGSLRLSCAASGFTFIKYAMGWSRQAPGNEMEFVAAITRSGTSTYYADSVKGRFTISRDNAKNTVYLQMNSLKPEDTAVYYCAATYPRYYSGEFDYWGQGTLVTVSS
- polyreactivity (PSR sort gate): high polyreactivity

Sequence: QVQLVESGGGLVQAGGSLRLSCAASGFTFIKYAMGWYRQATGNEREFVATISWNGGNTYYADSVKGRFTISRDNAKNTVYLQMNSLKPEDTAVYYCAARVKYRTRGGTVVSYDYWGQGTQVTVSS
- polyreactivity (PSR sort gate): high polyreactivity

Sequence: QVQLVESGGGLVQAGGSLRLSCAASGFTFIRNAMGWYRQAPGKERELVAAISRSGGSTYYADSVKGRFTISRDNAKKTVYLQMNSQKPEDTAVYYCAVTLYLKWQGGAYDYWGQGTQVTVSS
- polyreactivity (PSR sort gate): low polyreactivity

Sequence: QVQLVESGGGLVQAGGSLRLSCAASGFTFIRYAMGWYRQAPGKERELVATITRRGGSTYYADSVKGRFTISRDNAKNTVYLQMNSLKPEDTAVYYCNRDYVTYGKYYYWGQGTQVTVSS
- polyreactivity (PSR sort gate): high polyreactivity

Sequence: QVQLVESGGGLVQAGGSLRLSCAASGFTFIRYAMGWYRQAPGKEREVVAAISWRVGITYYADSVKGRFTISRDNAKNTVYLQMNSQKPEDTAVYYCARDYRNPPFAYEYWGQGTQVTVSS
- polyreactivity (PSR sort gate): low polyreactivity

Sequence: QVQLVESGGGLVQAGGSLRLSCAASGFTFIRYSMGWYRQAPGKERELVATISRSGGRTYYADSVKGRFTISRDNAKNTVYLQMNSLKPEDTAVYYCNAEAIVLNGGGYWGQGTQVTVSS
- polyreactivity (PSR sort gate): high polyreactivity

Sequence: QVQLVESGGGLVQAGGSLRLSCAASGFTFISNAMGWYRQAPGKERELVAAISSSGGRTYYADSVKGRFTISRDNAKNTVYLQMNRLKPEDTAVYYCYADRSLLYSRKIEYDYWGQGTQVTVSS
- polyreactivity (PSR sort gate): low polyreactivity

Sequence: QVQLVESGGGLVQAGGSLRLSCAASGFTFIYYAMGWYRQAPGKERELVAAISASGGSTYYADSVKGRFTISRDNAKNTVYLQMNSLKPEDTAVYYCAADALIYYKGSPDYYWGQGTQVTVSS
- polyreactivity (PSR sort gate): high polyreactivity

Sequence: QVQLVESGGGLVQAGGSLRLSCAASGFTFKCYTMGWYRQAPGKERELVAGISRRGGSTYYADSVKGRFTISRDNAKNTVYLQMNSLKPEDTAVYDCAADSQLTKFYYWGQGSQVTVSS
- polyreactivity (PSR sort gate): high polyreactivity

Sequence: QVQLVESGGGLVQAGGSLRLSCAASGFTFKGNAMGWYRQAPGTERELVATITQSAGSTYYADSVKGRFTISRDNAKNTVYLEMNSLKPEDTAVYYCNADPITLYYYSWYNYWGQGTQVTVSS
- polyreactivity (PSR sort gate): low polyreactivity

Sequence: QVQLVESGGGLVQAGGSLRLSCAASGFTFKNNAMGWYRQAPGKEREFVASISSGSTNYADSVKGRFTISRDNAKYTVYLQMNSLKPEDTEVYYCIRAPYRYSEPDYRSDFWGQGTQVTVSS
- polyreactivity (PSR sort gate): low polyreactivity

Sequence: QVQLVESGGGLVQAGGSLRLSCAASGFTFKQYGMGWYRQAPGKERELVASISYRGGSTHYADSVKGRFTISRDNAKKTVYLQMNSLKPEDTAVYYCAARVTSRTSIKGDYWGQGTQVTVSS
- polyreactivity (PSR sort gate): low polyreactivity

Sequence: QVQLVESGGGLVQAGGSLRLSCAASGFTFKSYAMGWYRQAPGKERELVAAISRGTSTKYADSVKGRFTISRDNAKNTVYLQMNSLKPEDTAVYYCAALFPTSDLRLRYYRYDYWGQGTQVTVSS
- polyreactivity (PSR sort gate): low polyreactivity

Sequence: QVQLVESGGGLVQAGGSLRLSCAASGFTFKSYGMGWYRQAPGKERELVAAISKSGGRTYYADSVKGRFTISRDNAKNTVYLQMNSLKPEDTAVYYCAARVYGVDGYGYWGQGTQVTVSS
- polyreactivity (PSR sort gate): high polyreactivity

Sequence: QVQLVESGGGLVQAGGSLRLSCAASGFTFKYTDMGWYRQAPGKERELVAAINWRGGSTYYADSLKGRFTISRDNAKNTVYLQMNSLKPEDTAFYYCNLVYRPSRYDYWGQGTQVTVSS
- polyreactivity (PSR sort gate): high polyreactivity

Sequence: QVQLVESGGGLVQAGGSLRLSCAASGFTFKYYSMGRYRQAPGKERELVAAISRGGRTNYADSVKGRFTISRDNAKNTVYLQMNSLKPEDTAVYYCAADGIYALFFTSGGIWFDYWGEGTQVTVSS
- polyreactivity (PSR sort gate): low polyreactivity

Sequence: QVQLVESGGGLVQAGGSLRLSCAASGFTFKYYTMGWYRHAPGKETELDAVITRSGGSTYADSVKGRFTISRDNAKNTVYLQMNSLKPVDTAVYYCAKGAAGINLVRHDYWGQVTQVTVSS
- polyreactivity (PSR sort gate): high polyreactivity

Sequence: QVQLVESGGGLVQAGGSLRLSCAASGFTFKYYTMGWYRQAPGKERELVAAISKSGDITYYADSVKGRFTISRDNAKNTVYLQMNSLKPEDTAVYYCAAVGRVSYNRFDYWGQGTQVTVSS
- polyreactivity (PSR sort gate): high polyreactivity

Sequence: QVQLVESGGGLVQAGGSLRLSCAASGFTFKYYTMGWYRQAPGKERELVAAISSAASTNYADSVKGRFTISRDNAKNTVYLQMNSLKPEDTAVYYCNADITGWARIRYQWIRQYDYWGQGTQVTVSS
- polyreactivity (PSR sort gate): high polyreactivity
